Laboratory results published in patent publication US20250188188A1 (DIANTHUS THERAPEUTICS OPCO, published 2025).

T1: active human C1s purified from human serum (CompTech, Tyler, TX, catalog number A104) (human, UniProt P09871 16-437; P09871 438-688)
T1 sequence 1: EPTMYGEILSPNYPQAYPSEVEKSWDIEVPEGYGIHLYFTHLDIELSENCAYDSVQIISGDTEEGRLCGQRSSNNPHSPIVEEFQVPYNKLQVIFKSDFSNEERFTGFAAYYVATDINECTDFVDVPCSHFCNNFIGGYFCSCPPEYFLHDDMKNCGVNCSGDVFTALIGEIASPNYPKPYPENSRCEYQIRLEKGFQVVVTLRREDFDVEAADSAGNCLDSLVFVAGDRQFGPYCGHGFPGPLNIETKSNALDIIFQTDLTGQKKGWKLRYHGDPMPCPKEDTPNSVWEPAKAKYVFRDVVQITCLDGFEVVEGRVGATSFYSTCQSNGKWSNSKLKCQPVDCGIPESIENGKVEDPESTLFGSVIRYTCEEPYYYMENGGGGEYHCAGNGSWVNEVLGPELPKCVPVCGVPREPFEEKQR
T1 sequence 2: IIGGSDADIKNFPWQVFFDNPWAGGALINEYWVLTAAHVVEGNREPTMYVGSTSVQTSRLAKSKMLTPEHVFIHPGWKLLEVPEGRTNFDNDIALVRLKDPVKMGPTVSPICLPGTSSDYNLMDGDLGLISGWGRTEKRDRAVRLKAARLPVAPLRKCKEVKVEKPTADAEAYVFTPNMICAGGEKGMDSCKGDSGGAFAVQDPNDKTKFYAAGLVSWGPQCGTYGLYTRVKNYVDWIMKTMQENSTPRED


Legend:
[1] = biological target: T1, active human C1s purified from human …; assay: cell-based or functional assay
[2] = biological target: T1, active human C1s purified from human …; assay: cell-based or functional assay; remark: listed apart in the source
[3] = biological target: T1, active human C1s purified from human …; assay: cell-based or functional assay; remark: listed apart in the source
[4] = biological target: T1, active human C1s purified from human …; assay: cell-based or functional assay; remark: listed apart in the source
[5] = biological target: T1, active human C1s purified from human …; assay: SPR (Biacore 4000), 37 C pH 7.4, antibody captured via goat anti-human antibody, C1s in solution, n=4
Experimental: (§1) Binding of MAB39 and MAB9 to Human Active C1s at 37° C./pH 7.4 Measured by Surface Plasmon Resonance. Human active C1s purified from serum was procured from Complement Technologies, Tyler, TX (catalog number A104). Studies to evaluate MAB39 and MAB9 binding to human active C1s at 37° C. were performed on a Biacore 4000 and Biacore T100 (Cytiva, Marlborough, MA), respectively. Goat anti-human antibody (ThermoFisher, Waltham, MA, USA, catalog number H10500) was amine-coupled to a C1 sensor chip (Cytiva, Marlborough, MA, USA, catalog number BR100535). MAB39 was diluted to 6.67 nM and MAB9 was diluted to 10 nM in 50 mM HEPES pH 7.4, 150 mM NaCl, 1.3 mM Ca, 0.02% Tween-20, 1 mg/mL BSA (HBS). MAB39 was captured for 60 seconds to produce surface densities of 200 RU and MAB9 was captured for 30 seconds to produce surface densities of 10 to 20 RU. Human active C1s was tested for binding using a 3-fold titration series in HBS with a maximum concentration of 12.3 nM for MAB39 and 16 nM for MAB9. Data were processed by subtracting responses from a reference surface as well as a buffer injection. The processed data were fitted with a 1:1 interaction model including baseline offset and bulk refractive index shifts in the association phase. Surfaces were regenerated with a 12 second injection of 1/100 dilution of H3PO4 for MAB39 and 12 second injection of 1/50 dilution of H3PO4 for MAB9. Replicate experiments were performed (n=2 for MAB9 and n=4 for MAB39).
Comparison of Binding Affinities of MAB39 and MAB9 to Human Active C1s by Surface Plasmon Resonance. The human active C1s association constant (ka), disassociation constant (kd) and affinity (KD) for MAB39 and MAB9 were determined in separate experiments (Table 17). […] Statistical analysis was performed using paired t-test, with p value of 0.6168.

[6] = biological target: T1, active human C1s purified from human …; assay: SPR, direct comparison
[7] = biological target: T1, active human C1s purified from human …; assay: SPR (Biacore T100), 37 C pH 7.4, antibody captured via goat anti-human antibody, C1s in solution, n=2
Experimental: as §1, with “The processed data were fitted with a 1:1 interaction model including baseline offset and bulk refractive index shifts in the association phase. Surfaces were regenerated with a 12 second injection of 1/100 dilution of H3PO4 for MAB39 and 12 second injection of 1/50 dilution of H3PO4 for MAB9. Replicate experiments were performed (n=2 for MAB9 and n=4 for MAB39).” left out
(§2) Comparison of Binding Affinities of MAB39 and MAB9 to Human Active C1s by Surface Plasmon Resonance. The human active C1s association constant (ka), disassociation constant (kd) and affinity (KD) for MAB39 and MAB9 were determined in separate experiments (Table 17). […]

[8] = biological target: T1, active human C1s purified from human …; assay: cell-based or functional assay; remark: listed apart in the source
[9] = biological target: T1, active human C1s purified from human …; assay: SPR (Biacore T100), 37 C pH 7.4, antibody captured via goat anti-human antibody, C1s in solution, n=2; Table 17 experiment, apart from Table 12
Experimental: as §1, with “The processed data were fitted with a 1:1 interaction model including baseline offset and bulk refractive index shifts in the association phase. Surfaces were regenerated with a 12 second injection of 1/100 dilution of H3PO4 for MAB39 and 12 second injection of 1/50 dilution of H3PO4 for MAB9. Replicate experiments were performed (n=2 for MAB9 and n=4 for MAB39).” left out
as §2

Binder | IC50, inhibition of sensitized hRBC lysis in 25% human serum [1] | IC50, inhibition of C3b deposition on sensitized hRBCs in 7.5% human serum (flow cytometry), Donor A [2] | IC50, inhibition of C3b deposition on sensitized hRBCs in 7.5% human serum (flow cytometry), Donor B (1) [2] | IC50, inhibition of C3b deposition on sensitized hRBCs in 7.5% human serum (flow cytometry), Donor B (2) [2] | IC50, inhibition of Wieslab complement classical pathway (C5b-9 ELISA), 1% human serum [3] | IC50, inhibition of sensitized hRBC lysis in 25% human serum, Donor 1 [4] | IC50, inhibition of sensitized hRBC lysis in 25% human serum, Donor 2 [4] | IC50, inhibition of sensitized hRBC lysis in 25% human serum, Donor 3 [4] | Kd [5] | koff [5] | kon [5] | fold higher affinity than MAB2 (US20220380483A1) [6] | koff [7] | kon [7] | IC50 in the RBC lysis assay (FIG. 4C) [8] | fold improvement in potency (IC50, RBC lysis assay) against MAB2 (US20220380483A1) [8] | Kd [9]
IgG4-MAB4 (MAB4 in human IgG4 with S228P, L235E and YTE) (antibody, V domains shown) VH: QVQLVESGGGLVKPGGSLRLSCAASGFTFSDYYMSWIRQAPGKGLEWVSYISRSGSTKYYADSVKGRFTISRDNAKNSLYLQMNSLRAEDTAVYYCARDESQYALDYWGQGTLVTVSS VL: DIQMTQSPSSLSASVGDRVTITCQASQDISNYLNWYQQKPGKAPKLLIYDASNLETGVPSRFSGSGSGTDFTFTISSLQPEDIATYYCHQYEDYPLTFGGGTKVEIKR | 17.5 nM | 69.2 nM | 193 nM | 262 nM | 2.6 nM | 14.9 nM | 17.1 nM | 6.6 nM |  |  |  |  |  |  |  |  | 
IgG4-MAB39 (MAB39 in human IgG4 with S228P, L235E and YTE) (antibody, Differs from MAB9 only in the N-terminal VH residue (E instead of Q); also called IgG-MAB39) heavy: EVQLVESGGGLVKPGGSLRLSCAASGFTFSDYYMSWIRQAPGKGLEWVSYISRSGSTKYYADSVKGRFTISRDNAKNSLYLQMNSLRAEDTAVYYCARDENYALDWWGQGTLVTVSSASTKGPSVFPLAPCSRSTSESTAALGCLVKDYFPEPVTVSWNSGALTSGVHTFPAVLQSSGLYSLSSVVTVPSSSLGTKTYTCNVDHKPSNTKVDKRVESKYGPPCPPCPAPEFEGGPSVFLFPPKPKDTLYITREPEVTCVVVDVSQEDPEVQFNWYVDGVEVHNAKTKPREEQFNSTYRVVSVLTVLHQDWLNGKEYKCKVSNKGLPSSIEKTISKAKGQPREPQVYTLPPSQEEMTKNQVSLTCLVKGFYPSDIAVEWESNGQPENNYKTTPPVLDSDGSFFLYSRLTVDKSRWQEGNVFSCSVMHEALHNHYTQKSLSLSLG light: not shown |  |  |  |  |  |  |  |  | 0.0105 nM | 0.000125 s⁻¹ | 1.19e+07 M⁻¹ s⁻¹ |  |  |  |  |  | 
IgG4-MAB9 (MAB9 in human IgG4 with S228P, L235E and YTE) (antibody, also called MAB9 with constant domain PE and YTE mutations) heavy: QVQLVESGGGLVKPGGSLRLSCAASGFTFSDYYMSWIRQAPGKGLEWVSYISRSGSTKYYADSVKGRFTISRDNAKNSLYLQMNSLRAEDTAVYYCARDENYALDWWGQGTLVTVSSASTKGPSVFPLAPCSRSTSESTAALGCLVKDYFPEPVTVSWNSGALTSGVHTFPAVLQSSGLYSLSSVVTVPSSSLGTKTYTCNVDHKPSNTKVDKRVESKYGPPCPPCPAPEFEGGPSVFLFPPKPKDTLYITREPEVTCVVVDVSQEDPEVQFNWYVDGVEVHNAKTKPREEQFNSTYRVVSVLTVLHQDWLNGKEYKCKVSNKGLPSSIEKTISKAKGQPREPQVYTLPPSQEEMTKNQVSLTCLVKGFYPSDIAVEWESNGQPENNYKTTPPVLDSDGSFFLYSRLTVDKSRWQEGNVFSCSVMHEALHNHYTQKSLSLSLG light: not shown | 17.6 nM | 64.1 nM | 124 nM | 202 nM | 0.78 nM | 12.9 nM | 22.1 nM | 5.8 nM |  |  |  | ~10 fold | 0.00012 s⁻¹ | 1.69e+07 M⁻¹ s⁻¹ | 17.6 nM | > 3 fold | 0.0071 nM
